Measurements as given in article PMC7392005, “Fructose-1, 6-bisphosphatase 1 interacts with NF-κB p65 to regulate breast tumorigenesis via PIM2 induced phosphorylation” (Theranostics, 2020).

Experiments:
[1] = target: T1, GST-tagged p65 (UniProt Q04206 1-551); assay: pull-down; GST pull-down: purified GST-tagged protein (or GST) mixed with His-tagged protein, both expressed in E. coli BL21 (DE3); conditions: both partners purified
T1 construct: NF-κB p65 (RelA); also called GST-p65; source: E. coli BL21 (DE3), purified
T1 sequence (Q04206 whole entry): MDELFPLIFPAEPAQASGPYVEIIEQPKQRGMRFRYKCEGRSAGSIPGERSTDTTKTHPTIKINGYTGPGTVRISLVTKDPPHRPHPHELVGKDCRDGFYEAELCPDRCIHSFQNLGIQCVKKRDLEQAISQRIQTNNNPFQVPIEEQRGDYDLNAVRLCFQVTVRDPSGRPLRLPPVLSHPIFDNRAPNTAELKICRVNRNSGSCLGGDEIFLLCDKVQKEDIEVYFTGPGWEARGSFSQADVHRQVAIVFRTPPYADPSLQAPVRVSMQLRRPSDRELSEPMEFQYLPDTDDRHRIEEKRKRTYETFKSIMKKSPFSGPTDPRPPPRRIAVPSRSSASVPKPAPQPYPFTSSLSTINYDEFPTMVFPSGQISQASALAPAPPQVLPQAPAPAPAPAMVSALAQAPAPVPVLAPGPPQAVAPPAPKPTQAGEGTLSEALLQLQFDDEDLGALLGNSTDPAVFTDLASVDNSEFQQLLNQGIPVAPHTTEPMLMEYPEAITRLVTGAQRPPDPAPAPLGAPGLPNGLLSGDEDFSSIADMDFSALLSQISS

[2] = target: T2, GST-tagged FBP1 (UniProt P09467 1-338); assay: as above; conditions: both partners purified
T2 construct: fructose-1,6-bisphosphatase 1 (FBP1); also called GST-FBP1; source: E. coli BL21 (DE3), purified
T2 sequence (looked up): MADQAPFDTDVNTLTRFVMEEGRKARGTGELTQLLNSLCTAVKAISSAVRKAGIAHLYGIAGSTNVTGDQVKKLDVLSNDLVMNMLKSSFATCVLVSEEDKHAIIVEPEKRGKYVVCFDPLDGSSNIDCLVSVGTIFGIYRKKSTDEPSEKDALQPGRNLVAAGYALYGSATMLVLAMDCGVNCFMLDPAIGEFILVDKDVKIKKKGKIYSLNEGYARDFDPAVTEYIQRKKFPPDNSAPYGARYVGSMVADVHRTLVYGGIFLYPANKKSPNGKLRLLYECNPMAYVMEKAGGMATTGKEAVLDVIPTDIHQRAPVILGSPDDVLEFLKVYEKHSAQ

B1: His-tagged FBP1 (enzyme, UniProt P09467 1-338, looked up)
chain: MADQAPFDTDVNTLTRFVMEEGRKARGTGELTQLLNSLCTAVKAISSAVRKAGIAHLYGIAGSTNVTGDQVKKLDVLSNDLVMNMLKSSFATCVLVSEEDKHAIIVEPEKRGKYVVCFDPLDGSSNIDCLVSVGTIFGIYRKKSTDEPSEKDALQPGRNLVAAGYALYGSATMLVLAMDCGVNCFMLDPAIGEFILVDKDVKIKKKGKIYSLNEGYARDFDPAVTEYIQRKKFPPDNSAPYGARYVGSMVADVHRTLVYGGIFLYPANKKSPNGKLRLLYECNPMAYVMEKAGGMATTGKEAVLDVIPTDIHQRAPVILGSPDDVLEFLKVYEKHSAQ
notes: fructose-1,6-bisphosphatase 1 (FBP1); also called His-FBP1; source: E. coli BL21 (DE3)
[1]
  binding result: binds

B2: His-tagged PIM2 (enzyme)
chain: not shown
notes: serine/threonine kinase PIM2; also called His-PIM2; source: E. coli BL21 (DE3), purified
[2]
  binding result: binds
